Assay results from the supplement of paper PMC7877785.
± gives the uncertainty stated by the source.

Test: self-splicing fitness, log relative to wild type (ln ratio); higher = more splicing; Tetrahymena group I intron in knt gene, E. coli kanamycin selection, DiMSum; sequences stand for … in CUCUCU…GGAGGGAAAAGUUAUCAGGCAUGCACCUGGUAGCUAGUCUUUAAACCAAUAGAUUGCAUCGGUUUAAAAGGCAAGACCGUCAAAUUGCGGGAAAGGGGUCAACAGCCGUUCAGUACCAAGUCUCAGGGGAAACUUUGAGAUGGCCUUGCAAAGGGUAUGGUAAUAAGCUGACGGACAUGGUCCUAACCACGCAGCCAAGUCCUAAGUCAACAGAUCUUCUGUUGAUAUGGAUGCAGUUCACAGACUAAAUGUCGGUCGGGGAAGAUGUAUUCUUCUCAUAAGAUAUAGUCGGACCUCUCCUUAAUGGGAGCUAGCGGAUGAAGUGAUGCAACACUGGAGCCGCUGGGAACUAAUUUGUAUGCGAAAGUAUAUUGAUUAGUUUUGGAGUACUCGUGGUCG
In short: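 Six replicate transformations of E. coli BL21(DE3) with a pET-22b(+) library were grown overnight at 37°C or 30°C. The library randomised all eight P1ex-region intron nucleotides, the intron lying in the knt kanamycin-resistance gene, and plates were LB agar with or without 25 μg/mL kanamycin plus 100 μg/mL carbenicillin, 50 μM IPTG and 0.2% rhamnose. Pooled colonies were amplicon-sequenced on an Illumina HiSeq 2500, and fitness is the DiMSum error-weighted combination of wild-type-normalised replicate fold changes, kanamycin versus none.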

| Sequence | self-splicing fitness (ln) (30 °C) | self-splicing fitness (ln) (37 °C) |
| --- | --- | --- |
| GAUGAGCAAUAUUACGACCG | -2.84 ± 0.36 | -1.95 ± 0.43 |
| GAUGAGCAAUAUUACGACUA | -1.79 ± 0.12 | -0.933 ± 0.11 |
| GAUGAGCAAUAUUACGCGAA | -3.16 ± 0.16 | -2.04 ± 0.17 |
| GAUGAGCAAUAUUACGCUGC | – | -1.25 ± 0.48 |
| GAUGAGCAAUAUUACGCUGG | -2.08 ± 0.18 | -1.02 ± 0.3 |
| GAUGAGCAAUAUUACGGACU | -1.79 ± 0.25 | -1.66 ± 0.38 |
| GAUGAGCAAUAUUACGGAGA | -2.91 ± 0.5 | -3 ± 0.47 |
| GAUGAGCAAUAUUACGGCAU | -1.71 ± 0.29 | -1.79 ± 0.39 |
| GAUGAGCAAUAUUACGGCUA | -1.01 ± 0.17 | -1.41 ± 0.17 |
| GAUGAGCAAUAUUACGGCUG | -1.42 ± 0.19 | -1.36 ± 0.16 |
| GAUGAGCAAUAUUACGGGAG | -3.76 ± 0.25 | -1.54 ± 0.41 |
| GAUGAGCAAUAUUACGGGGU | -3.36 ± 0.23 | -2.92 ± 0.32 |
| GAUGAGCAAUAUUACGGUAA | -2.21 ± 0.29 | -2.95 ± 0.38 |
| GAUGAGCAAUAUUACGGUGU | -3.67 ± 0.22 | -1.15 ± 0.13 |
| GAUGAGCAAUAUUACGGUUG | -3.87 ± 0.21 | -2.22 ± 0.18 |
| GAUGAGCAAUAUUACGUCAU | -3.15 ± 0.32 | -2.99 ± 0.32 |
| GAUGAGCAAUAUUACGUCCC | -2.06 ± 0.43 | -1.04 ± 0.44 |
| GAUGAGCAAUAUUACGUCGU | -2.4 ± 0.15 | -2.13 ± 0.17 |
| GAUGAGCAAUAUUACGUGCU | -2.91 ± 0.44 | – |
| GAUGAGCAAUAUUACGUGGG | -3.45 ± 0.21 | -3.04 ± 0.27 |
| GAUGAGCAAUAUUACGUUCG | -2.05 ± 0.14 | -0.925 ± 0.18 |
| GAUUAGCAAUAUUACGAACU | -0.696 ± 0.15 | -0.559 ± 0.19 |
| GAUUAGCAAUAUUACGACGC | 0.277 ± 0.14 | 0.361 ± 0.14 |
| GAUUAGCAAUAUUACGAGCA | -1.27 ± 0.17 | 0.106 ± 0.14 |
| GAUUAGCAAUAUUACGAUAA | -0.956 ± 0.12 | 0.0487 ± 0.15 |

| Sequence | self-splicing fitness (ln) (30 °C) | self-splicing fitness (ln) (37 °C) |
| --- | --- | --- |
| GAUUAGCAAUAUUACGCAGA | -3.16 ± 0.23 | -1.16 ± 0.16 |
| GAUUAGCAAUAUUACGCCCA | -0.748 ± 0.11 | 0.123 ± 0.14 |
| GAUUAGCAAUAUUACGCGUA | -1.01 ± 0.1 | -0.855 ± 0.091 |
| GAUUAGCAAUAUUACGGCGG | -0.96 ± 0.16 | -2.17 ± 0.25 |
| GAUUAGCAAUAUUACGGGAA | -1.67 ± 0.26 | -3.27 ± 0.43 |
| GAUUAGCAAUAUUACGGGGA | -2.86 ± 0.19 | -2.71 ± 0.2 |
| GAUUAGCAAUAUUACGGGUC | – | -2.78 ± 0.34 |
| GAUUAGCAAUAUUACGUACU | -0.632 ± 0.073 | 0.0191 ± 0.088 |
| GAUUAGCAAUAUUACGUAGC | -1.74 ± 0.14 | -1.33 ± 0.18 |
| GAUUAGCAAUAUUACGUGGA | -3.92 ± 0.3 | -0.488 ± 0.13 |
| GAUUAGCAAUAUUACGUGGC | -3.36 ± 0.25 | -2.3 ± 0.21 |
| GAUUAGCAAUAUUACGUUAU | -3.04 ± 0.21 | -2.51 ± 0.18 |
| GAUUAGCAAUAUUACGUUUC | -3.69 ± 0.28 | -1.89 ± 0.18 |
| GCAAAGCAAUAUUACGAAGG | -2 ± 0.14 | -0.499 ± 0.17 |
| GCAAAGCAAUAUUACGACCG | -0.859 ± 0.14 | -1.26 ± 0.25 |
| GCAAAGCAAUAUUACGACUA | -0.955 ± 0.05 | -0.475 ± 0.055 |
| GCAAAGCAAUAUUACGAGAU | -3.64 ± 0.16 | -2.19 ± 0.12 |
| GCAAAGCAAUAUUACGAGGU | -3.56 ± 0.25 | -3.24 ± 0.33 |
| GCAAAGCAAUAUUACGAGUA | -2.1 ± 0.087 | -1.15 ± 0.086 |
| GCAAAGCAAUAUUACGAUUC | -1.26 ± 0.082 | -0.245 ± 0.1 |
| GCAAAGCAAUAUUACGCAGC | -0.0889 ± 0.15 | -2.46 ± 0.39 |
| GCAAAGCAAUAUUACGCAUG | -3.61 ± 0.22 | -2.97 ± 0.27 |
| GCAAAGCAAUAUUACGCGAA | -1.55 ± 0.14 | -0.599 ± 0.17 |
| GCAAAGCAAUAUUACGCGAC | -3.4 ± 0.13 | -1.54 ± 0.16 |
| GCAAAGCAAUAUUACGGAUA | -2.49 ± 0.13 | -1.6 ± 0.1 |

| Sequence | self-splicing fitness (ln) (30 °C) | self-splicing fitness (ln) (37 °C) |
| --- | --- | --- |
| GCAAAGCAAUAUUACGGGAG | -2.71 ± 0.11 | -2.08 ± 0.13 |
| GCAAAGCAAUAUUACGGUAU | -1.32 ± 0.072 | -0.489 ± 0.096 |
| GCAAAGCAAUAUUACGGUCC | -1.75 ± 0.14 | -0.8 ± 0.15 |
| GCAAAGCAAUAUUACGUAAC | -1.67 ± 0.12 | -0.338 ± 0.15 |
| GCAAAGCAAUAUUACGUAGU | -2.09 ± 0.11 | -1.14 ± 0.15 |
| GCAAAGCAAUAUUACGUCCC | -0.828 ± 0.14 | -0.697 ± 0.098 |
| GCAAAGCAAUAUUACGUCCG | -1.98 ± 0.25 | -1.74 ± 0.31 |
| GCAAAGCAAUAUUACGUCUU | -1.14 ± 0.074 | -1.11 ± 0.075 |
| GCAAAGCAAUAUUACGUGCA | -1.62 ± 0.099 | -0.826 ± 0.1 |
| GCAAAGCAAUAUUACGUGUC | -4.47 ± 0.18 | -1.84 ± 0.12 |
| GCAAAGCAAUAUUACGUUGC | -3.51 ± 0.21 | -1.88 ± 0.21 |
| GCACAGCAAUAUUACGAAAG | -3.79 ± 0.15 | -1.91 ± 0.11 |
| GCACAGCAAUAUUACGACUA | -1.17 ± 0.11 | -0.702 ± 0.085 |
| GCACAGCAAUAUUACGACUG | -1.14 ± 0.094 | -0.12 ± 0.093 |
| GCACAGCAAUAUUACGAGCG | -1.16 ± 0.066 | -0.171 ± 0.077 |
| GCACAGCAAUAUUACGAUGC | -3.17 ± 0.2 | -1.88 ± 0.17 |
| GCACAGCAAUAUUACGAUUC | -0.739 ± 0.11 | 1.44 ± 0.15 |
| GCACAGCAAUAUUACGCAUU | -0.442 ± 0.064 | 0.276 ± 0.078 |
| GCACAGCAAUAUUACGCGAU | -2.12 ± 0.16 | -1.55 ± 0.15 |
| GCACAGCAAUAUUACGCGCC | -2.56 ± 0.38 | – |
| GCACAGCAAUAUUACGCGGC | -4.04 ± 0.43 | -1.84 ± 0.26 |
| GCACAGCAAUAUUACGCGGG | -2.13 ± 0.069 | -1.39 ± 0.081 |
| GCACAGCAAUAUUACGCGUU | -1.29 ± 0.053 | -0.545 ± 0.057 |
| GCACAGCAAUAUUACGCUAG | -1.9 ± 0.082 | -1.18 ± 0.078 |
| GCACAGCAAUAUUACGCUCC | -1.27 ± 0.16 | 0.155 ± 0.17 |

| Sequence | self-splicing fitness (ln) (30 °C) | self-splicing fitness (ln) (37 °C) |
| --- | --- | --- |
| GCACAGCAAUAUUACGGAAU | -1.08 ± 0.076 | -0.95 ± 0.095 |
| GCACAGCAAUAUUACGGACA | -1.02 ± 0.1 | -0.584 ± 0.11 |
| GCACAGCAAUAUUACGGAGA | -2.85 ± 0.12 | -2.16 ± 0.13 |
| GCACAGCAAUAUUACGGCGC | -1.54 ± 0.1 | -0.777 ± 0.12 |
| GCACAGCAAUAUUACGGUAC | -1.17 ± 0.096 | -0.285 ± 0.1 |
| GCACAGCAAUAUUACGGUCC | -0.798 ± 0.062 | 0.0593 ± 0.082 |
| GCACAGCAAUAUUACGGUGC | -3.09 ± 0.2 | -2.61 ± 0.23 |
| GCACAGCAAUAUUACGUAUU | -1 ± 0.047 | -0.335 ± 0.057 |
| GCACAGCAAUAUUACGUCCA | -0.954 ± 0.12 | -0.96 ± 0.11 |
| GCACAGCAAUAUUACGUCUA | -0.8 ± 0.06 | -0.367 ± 0.063 |
| GCACAGCAAUAUUACGUCUG | -2.53 ± 0.1 | -1.27 ± 0.11 |
| GCACAGCAAUAUUACGUUCU | -0.579 ± 0.054 | -0.524 ± 0.068 |
| GCACAGCAAUAUUACGUUUG | -1.62 ± 0.066 | -1.08 ± 0.089 |
| GCAGAGCAAUAUUACGACCU | – | -1.59 ± 0.42 |
| GCAGAGCAAUAUUACGCACG | -4.51 ± 0.42 | -2.05 ± 0.23 |
| GCAGAGCAAUAUUACGCAGC | -2.42 ± 0.47 | – |
| GCAGAGCAAUAUUACGCAUU | -3.11 ± 0.16 | -2.3 ± 0.2 |
| GCAGAGCAAUAUUACGCCGG | -2.85 ± 0.45 | -0.641 ± 0.35 |
| GCAGAGCAAUAUUACGCUGC | -3.42 ± 0.48 | -1.76 ± 0.33 |
| GCAGAGCAAUAUUACGGAAA | – | -2.15 ± 0.43 |
| GCAGAGCAAUAUUACGGAGC | -2.89 ± 0.28 | -2.84 ± 0.28 |
| GCAGAGCAAUAUUACGGCAG | -2.87 ± 0.23 | -1.18 ± 0.25 |
